Assay results as given in paper PMC11112410 (Frontiers in Immunology, 2024).

Key:
[1] = target: T1, recombinant Aln g 1.0101 (alder) (alder); test: ELISA; IgE inhibition: recombinant allergens (1 µg/ml) coated, pre-incubated with Nb32 (10 µg/ml) or Nb32ILZ (11.5 µg/ml) overnight at 4°C, then patients' sera 1:10; bound IgE detected with AKP-labelled anti-human-IgE antibody; details: both partners purified
T1 construct: alder pollen allergen Aln g 1, isoallergen Aln g 1.0101; source: bought: Biomay AG (recombinant)
T1 chain: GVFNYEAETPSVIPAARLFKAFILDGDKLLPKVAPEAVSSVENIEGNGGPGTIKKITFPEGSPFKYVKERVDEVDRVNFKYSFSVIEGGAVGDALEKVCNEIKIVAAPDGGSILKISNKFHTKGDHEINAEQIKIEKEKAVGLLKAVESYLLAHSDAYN

[2] = target: T2, recombinant Cor a 1.0103 (hazel) (Corylus avellana, isoallergen Cor a …, UniProt Q08407, strain); test: as above; details: both partners purified
T2 construct: source: bought: Biomay AG (recombinant)

[3] = target: T3, recombinant Car b 1.0109 (hornbeam) (Carpinus betulus, isoallergen Car b …, UniProt B6RQR6, strain); test: ELISA; recombinant allergens or unrelated antigens (2 µg/ml in bicarbonate buffer) coated on the plate; nanobodies 2 µg/ml (Figure 2A) or 1 µg/ml (Figures 2B-C) in 0.1% BSA in PBST, overnight at 4°C; detected with HRP-labelled anti-HA-tag antibody; details: both partners purified
T3 construct: hornbeam pollen allergen Car b 1, isoallergen Car b 1.0109; source: recombinant; provided by Prof; Barbara Bohle (IPA, MUV)

[4] = target: T4, recombinant Phl p 5.0101 (timothy grass) (timothy grass); test: as above; details: both partners purified
T4 construct: timothy grass pollen allergen Phl p 5, isoallergen Phl p 5.0101; also called major grass pollen allergen; source: bought: Biomay AG (recombinant)
T4 chain: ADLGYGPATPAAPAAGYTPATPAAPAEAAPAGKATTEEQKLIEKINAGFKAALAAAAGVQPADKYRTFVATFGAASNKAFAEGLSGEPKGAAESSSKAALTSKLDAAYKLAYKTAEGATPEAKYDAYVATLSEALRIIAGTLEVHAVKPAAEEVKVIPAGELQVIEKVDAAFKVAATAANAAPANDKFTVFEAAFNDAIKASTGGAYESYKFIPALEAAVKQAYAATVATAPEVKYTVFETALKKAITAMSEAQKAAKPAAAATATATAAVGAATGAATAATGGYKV

[5] = target: T1, recombinant Aln g 1.0101 (alder); test: SPR; Biacore T200, CM5 chip, 25°C; allergens amine-coupled; nanobodies injected in HBS-EP+ (Nb32ILZ 0.172-44 nM, Nb32 0.313-40 nM), multicycle kinetics, 30 min dissociation; printed kd from the 1:1 (Langmuir) binding model for both nanobodies; details: both partners purified
[6] = target: T5, recombinant Bet v 1.0101 (birch) (birch); test: as above; details: both partners purified
T5 construct: major birch pollen allergen Bet v 1, isoallergen Bet v 1.0101; also called major birch pollen allergen; source: bought: Biomay AG (recombinant)
T5 chain: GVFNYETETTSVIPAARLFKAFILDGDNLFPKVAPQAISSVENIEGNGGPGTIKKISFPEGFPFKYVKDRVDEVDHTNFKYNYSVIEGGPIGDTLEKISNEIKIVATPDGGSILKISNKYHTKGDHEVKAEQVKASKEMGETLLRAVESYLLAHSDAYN

[7] = target: T2, recombinant Cor a 1.0103 (hazel); test: as above; details: both partners purified
[8] = target: T6, natural Cor a 1 in hazel pollen extract (hazel (endogenous in hazel pollen)); test: far-Western, overlay or dot blot; pollen extracts separated by reducing SDS-PAGE, blotted on nitrocellulose; strips incubated with Nb32 (1 µg/ml) or Nb32ILZ (1.15 µg/ml) in Buffer A at 4°C overnight; detected with HRP-labelled anti-HA-tag antibody; details: one partner purified
T6 construct: natural Cor a 1 of hazel pollen extract; Unpurified extract; band at around 17 kDa on blots; source: endogenous, hazel pollen (Allergon) extract
T6 chain: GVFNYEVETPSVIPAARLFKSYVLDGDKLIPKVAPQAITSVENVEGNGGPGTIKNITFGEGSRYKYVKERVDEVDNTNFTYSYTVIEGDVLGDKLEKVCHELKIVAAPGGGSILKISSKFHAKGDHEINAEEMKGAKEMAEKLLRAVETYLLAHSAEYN

percent inhibition of patients' IgE binding [1]: 65%
percent inhibition of patients' IgE binding [2]: 48%
binding result [3]: binds
binding result [4]: no binding
koff [5]: 0.0001 s⁻¹
koff [6]: 9.9e-05 s⁻¹
koff [7]: 0.00021 s⁻¹
binding result [8]: binds
B1: Bet v 1-specific nanobody monomer Nb32 (VHH)
VHH: QVQLVESGGGSVQSGGSLRLSCAASGYTYSSYCMAWFRQAPGKKREGVAAIDTDGSTDYADSVKGRFAISQDNAKNTLYLQMNSLKPEDTAMYYCAAYGGSCRRGTGSGYWGQGTQVTVSS
notes: as the chain of m1 (Nb32ILZ) without the ILZ domain: Nb32 VHH and hinge; also called Nb32 monomer; not shown: HA, C-terminal, kept; His6, C-terminal, kept
